Experimental data from paper PMC8944910.
Like-named read-outs stand apart in the source and are kept apart here.

How the values were obtained:
[1] = target: His-tagged eukaryotic translation initiation factor 1 (His–eIF1), labelled with NT650 (UniProt P32911); assay: temperature-related intensity change assay
[2] = target: His-tagged eukaryotic translation initiation factor 1 (His–eIF1), labelled with NT650 (UniProt P32911); assay: temperature-related intensity change assay; remark: listed apart in the source

Sequence of UniProt P32911 (P32911 whole entry): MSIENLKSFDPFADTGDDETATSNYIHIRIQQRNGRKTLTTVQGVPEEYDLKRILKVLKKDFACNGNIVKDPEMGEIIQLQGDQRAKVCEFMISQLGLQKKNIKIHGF

40S ribosomal subunit from wild-type control (BY4741 / BCD1) yeast cells (from UniProt P05750 1-240) (complex)
Kd [1]: 23 nM

hypo-2′-O-methylated 40S ribosomal subunit from bcd1-D72A yeast cells (from UniProt P05750 1-240) (complex)
Kd [2]: 63 nM | Kd [1]: 64 nM
